Results as given in patent US20200325187A1 (Genentech, published 2020).
Numbering of substitutions follows the chain as printed. Like-named read-outs stand apart in the source and are kept apart here. Non-standard residues stand in square brackets, D forms with d. No end group written: not given here. Nle = CCCC[C@H](N)C(=O)O

Experiments:
hVEGF-A [1] = target: T1, hVEGF-A (human, UniProt P15692-4 27-191, limits assumed); test: cell-based or functional assay
hVEGF-A (8-109) [2] = target: T2, hVEGF-A (8-109) (human, UniProt P15692 214-315); test: spot phage ELISA
T2 sequence (looked up): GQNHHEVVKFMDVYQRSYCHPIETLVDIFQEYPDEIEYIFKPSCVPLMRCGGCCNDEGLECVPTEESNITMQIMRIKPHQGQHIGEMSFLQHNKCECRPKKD
Summary of the method: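 Phage clones from four selection rounds were grown overnight at 37 °C with M13-KO7 helper phage. Bound phage was detected with anti-M13-HRP and TMB, with binding to BSA alone run in parallel as background.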

hVEGF-A Q89A = target: T3, hVEGF-A Q89A (human, UniProt P15692-4 34-135, Q89A); test: SPR
T3 construct: position probably counted on the mature protein
T3 sequence (looked up): T2 sequence (looked up) with Q82A
Method: (§1) Depending on the format of the assay either a streptavidin sensor (SA) or a dextran-coated (CM5) sensor was utilized as described below.
(§2) Reaction was then quenched by addition of 10 molar excess of Glycine pH 8.0 and the sample was buffer exchanged into PBS using an Amicon 0.5 mL 3000 MWCO ultra-centrifugal filters (EMD Millipore). The biotinylation state of the protein was verified by LC-MS analysis. Biotinylated VEGF-A was then captured on the surface until a resonance unit (RU) signal of about ˜400. For immobilization of VEGF-A on CM5 sensor, the surface was first activated with a mixture of N-ethyl-N′-(3-dimethylaminopropyl)carbodiimide hydrochloride and N-hydroxysuccinimide (EDC/NHS) according to the supplier instructions. VEGF-A was then diluted into coupling buffer (0.1 M Acetate Buffer, pH 5.0) and injected until the signal reached about ˜400 RU followed by a wash with 1 M ethanolamine pH 8.0 to quench remaining activated sites.

hVEGF-A K48A = target: T4, hVEGF-A K48A (human, UniProt P15692-4 34-135, K48A); test: SPR
T4 construct: position probably counted on the mature protein
T4 sequence (looked up): T2 sequence (looked up) with K41A
Method: as §1, §2

hVEGF-A [3] = target: T1, hVEGF-A; test: SPR
Method: as §1, §2

hVEGF-A Y21A = target: T5, hVEGF-A Y21A (human, UniProt P15692-4 34-135, Y21A); test: SPR
T5 construct: position probably counted on the mature protein
T5 sequence (looked up): T2 sequence (looked up) with Y14A
Method: as §1, §2

hVEGF-A (8-109) [4] = target: T2, hVEGF-A (8-109); test: SPR
Method: as §1, §2

human VEGF-A 165 = human VEGF-A 165 (human, UniProt P15692-4 27-191); test: SPR
Method: as §1, §2

mouse VEGF-A 164 = target: T6, mouse VEGF-A 164 (mouse, UniProt Q00731-2 27-190); test: SPR
T6 construct: also called mouse 164
T6 sequence (looked up): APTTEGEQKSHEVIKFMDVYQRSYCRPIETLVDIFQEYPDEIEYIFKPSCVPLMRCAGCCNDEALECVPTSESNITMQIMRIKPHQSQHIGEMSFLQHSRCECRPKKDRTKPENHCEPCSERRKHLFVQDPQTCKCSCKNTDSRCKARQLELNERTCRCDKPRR
Method: as §1, §2

rat VEGF-A = target: T7, rat VEGF-A (rat, UniProt P16612-2 27-190, limits assumed); test: SPR
T7 construct: also called rVEGF
T7 sequence (looked up): T6 sequence (looked up) with S10A, I14V, I75V
Method: as §1, §2

hVEGF-A (8-109) [5] = target: T2, hVEGF-A (8-109); test: SPR; remark: listed apart in the source
Method: as §1, §2

rabbit VEGF-A = target: T8, rabbit VEGF-A (rabbit, UniProt G1T1L9 1-398); test: SPR
T8 sequence: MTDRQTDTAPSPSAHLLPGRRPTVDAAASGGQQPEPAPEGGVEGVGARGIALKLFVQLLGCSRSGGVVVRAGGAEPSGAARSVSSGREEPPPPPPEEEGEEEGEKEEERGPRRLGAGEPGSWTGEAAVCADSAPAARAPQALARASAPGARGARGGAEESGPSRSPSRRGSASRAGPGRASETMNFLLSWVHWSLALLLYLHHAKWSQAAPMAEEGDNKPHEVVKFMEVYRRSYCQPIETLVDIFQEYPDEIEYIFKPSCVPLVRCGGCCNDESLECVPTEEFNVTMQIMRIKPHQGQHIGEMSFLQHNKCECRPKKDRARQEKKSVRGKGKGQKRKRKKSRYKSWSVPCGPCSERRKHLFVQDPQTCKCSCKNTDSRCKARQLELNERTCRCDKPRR
Method: as §1, §2

hVEGF-A [6] = target: T1, hVEGF-A; test: phage competition ELISA, soluble CKP
hVEGF-A [7] = target: T1, hVEGF-A; test: cell-based or functional assay; remark: listed apart in the source
hVEGF-A [8] = target: T1, hVEGF-A; test: KDR-VEGF competition ELISA
hVEGF-A (human), P15692 = target: T9, hVEGF-A (human), P15692; test: cell-based or functional assay
T9 chain: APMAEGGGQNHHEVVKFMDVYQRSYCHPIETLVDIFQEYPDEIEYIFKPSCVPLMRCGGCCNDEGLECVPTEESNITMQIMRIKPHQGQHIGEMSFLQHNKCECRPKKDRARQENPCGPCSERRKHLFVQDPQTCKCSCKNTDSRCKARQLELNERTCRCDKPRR

Flt-4 = target: T10, Flt-4 (human, UniProt P35916 25-776, limits assumed); test: plate ELISA, growth factor coated
T10 sequence (looked up): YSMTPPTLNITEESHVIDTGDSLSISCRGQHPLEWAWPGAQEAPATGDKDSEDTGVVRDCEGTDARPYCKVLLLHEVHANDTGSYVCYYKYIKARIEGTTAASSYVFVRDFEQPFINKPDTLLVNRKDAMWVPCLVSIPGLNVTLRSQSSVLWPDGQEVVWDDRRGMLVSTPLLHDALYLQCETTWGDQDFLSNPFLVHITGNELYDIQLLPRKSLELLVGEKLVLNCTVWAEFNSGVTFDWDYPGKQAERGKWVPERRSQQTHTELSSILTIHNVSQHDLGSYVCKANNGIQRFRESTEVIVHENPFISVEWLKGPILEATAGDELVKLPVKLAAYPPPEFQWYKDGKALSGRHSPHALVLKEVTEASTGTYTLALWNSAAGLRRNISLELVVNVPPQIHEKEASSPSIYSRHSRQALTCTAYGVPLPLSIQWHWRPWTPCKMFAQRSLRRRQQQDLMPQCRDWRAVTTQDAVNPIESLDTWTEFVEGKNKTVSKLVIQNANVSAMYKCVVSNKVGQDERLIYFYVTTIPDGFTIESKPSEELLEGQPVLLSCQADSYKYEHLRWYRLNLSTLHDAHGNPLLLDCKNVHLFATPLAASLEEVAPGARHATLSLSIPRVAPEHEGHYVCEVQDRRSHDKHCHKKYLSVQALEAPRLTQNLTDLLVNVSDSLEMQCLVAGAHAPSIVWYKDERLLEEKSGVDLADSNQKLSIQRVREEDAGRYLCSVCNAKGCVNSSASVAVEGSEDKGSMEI
Method: (§3) Binding specificity of each peptide was established by competition ELISA. […] After blocking with block buffer (PBS with 0.5% BSA and 0.05% TWEEN®20) for 2 hours at room temperature, the receptor-Fc fusions or biotinylated receptors were serially diluted using assay buffer (PBS with 0.5% BSA and 0.05% TWEEN®20) and incubated for 1 hour at room temperature. […] Competition ELISA was conducted in an identical fashion as described above except after blocking, a mixture of serially diluted peptide containing a constant concentration of receptor-Fc fusion or biotinylated receptor (concentration of receptor was set to EC₆₀) was added and incubated for 1 hour. All recombinant human proteins and antibodies were purchased from R &D Systems (Minneapolis, Minn.).

Flt-1 = Flt-1 (human, UniProt P17948 27-756, limits assumed); test: plate ELISA, growth factor coated
Chain of Flt-1 (P17948 27-756 limits assumed): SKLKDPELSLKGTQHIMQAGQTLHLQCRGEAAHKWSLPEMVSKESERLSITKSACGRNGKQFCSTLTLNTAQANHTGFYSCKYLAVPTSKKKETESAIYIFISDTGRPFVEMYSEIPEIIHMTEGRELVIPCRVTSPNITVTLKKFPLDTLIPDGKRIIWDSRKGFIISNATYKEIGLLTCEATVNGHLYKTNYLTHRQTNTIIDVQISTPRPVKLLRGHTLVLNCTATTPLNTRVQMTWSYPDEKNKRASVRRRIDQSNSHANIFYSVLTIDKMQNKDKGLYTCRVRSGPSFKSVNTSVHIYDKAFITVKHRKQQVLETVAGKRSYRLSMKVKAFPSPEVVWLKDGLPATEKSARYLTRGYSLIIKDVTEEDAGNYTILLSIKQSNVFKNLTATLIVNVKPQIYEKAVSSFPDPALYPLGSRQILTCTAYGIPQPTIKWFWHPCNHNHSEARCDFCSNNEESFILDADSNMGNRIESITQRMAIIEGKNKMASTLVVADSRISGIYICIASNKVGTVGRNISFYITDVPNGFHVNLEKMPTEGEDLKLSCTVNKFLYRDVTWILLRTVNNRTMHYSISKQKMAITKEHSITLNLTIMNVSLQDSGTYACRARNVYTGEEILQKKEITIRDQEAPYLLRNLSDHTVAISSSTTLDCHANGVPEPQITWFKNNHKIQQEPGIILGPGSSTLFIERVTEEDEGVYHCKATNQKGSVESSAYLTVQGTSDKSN
Method: as §3

Chain of EETI-II (chain, as listed by the source): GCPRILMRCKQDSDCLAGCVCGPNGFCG

With trypsin the “trypsin protease activity, peptide substrate cleavage assay” value (EETI-II) was “Unlike EETI-II, ... do not inhibit trypsin protease activity”.

With GCDVMQPYWGCKQDSDCLAGCVCHWYNSCG (designed binder, also called EM63) [VEGF_CKP9.63] the “Cellular IC50” value (hVEGF-A [1]) was 140 nM, the ELISA (hVEGF-A (8-109) [2]) was 2 and the “S/N vs BSA” value (hVEGF-A (8-109) [2]) was 29.7. It also gave a Kd (hVEGF-A Q89A) of 2000 nM, a Kd (hVEGF-A K48A) of 28.4 nM and a Kd (hVEGF-A [3]) of 100 nM. It also gave a Kd (hVEGF-A Y21A) of 585 nM, a Kd (hVEGF-A (8-109) [4]) of 100 nM and a Kd (human VEGF-A 165) of 382 nM. It also gave a Kd (mouse VEGF-A 164) of 289 nM, a Kd (rat VEGF-A) of 524 nM and a Kd (hVEGF-A (8-109) [5]) of 281 nM. The Kd (rabbit VEGF-A) was 311 nM, the IC50 (hVEGF-A [6]) was 146 nM and the “Cellular IC50” value (hVEGF-A [7]) was 140 nM. The IC50 (hVEGF-A [8]) was 10.8 nM.

GCNI[Nle]LPFWGCGRDFECLAGCVCQYYQSCG (designed binder, cysteine pairing not given here) [9.54.90.M5.Nle] was tested, and the Cellular IC50 (hVEGF-A (human), P15692) was 1.95 nM.

B1: VEGF-D (ligand, human, UniProt O43915 93-201, looked up)
chain: FYDIETLKVIDEEWQRTQCSPRETCVEVASELGKSTNTFFKPPCVNVFRCGGCCNEESLICMNTSTSYISKQLFEISVPLTSVPELVPVKVANHTGCKCLPTAPRHPYS
B1: binds (Flt-4).

B2: PIGF-2 (ligand, human, UniProt P49763-3 19-170, looked up)
chain: LPAVPPQQWALSAGNGSSEVEVVPFQEVWGRSYCRALERLVDVVSEYPSEVEHMFSPSCVSLLRCTGCCGDENLHCVPVETANVTMQLLKIRSGDRPSYVELTFSQHVRCECRPLREKMKPERRRPKGRGKRRREKQRPTDCHLCGDAVPRR
notes: also called P1Gf-2; P1GF
B2: binds (Flt-1).
